The target of experiment [1] is EccD5 (Mycobacterium xenopi). Briefly: cryo-EM structure.
Experiment [2] has as its target EccB5 (Mycobacterium xenopi). Briefly: cryo-EM structure.

We go through two substances from doi:10.1101/2020.11.17.387225.

As a reminder, the stoichiometry N is the number of molecules, sites or subunits per partner or assembly. With EccD5 (natural protein), in experiment [1], the stoichiometry N stood at 2. EccB5 (natural protein) had a stoichiometry N in experiment [2] of 6.
